Measurements taken from patent US10421817 (BEIJING MABWORKS BIOTECH, dated 2019).
Numbering of substitutions follows the chain as printed.

B1: 18F2-66VH6VL3 (antibody, human IgG1, kappa)
heavy: not shown
light: DIVMTQSPSSLTVSLGEKATISCKSSQSLLNSGNQKNYVTWYQQKPGQPPKLLIYWSSTRSFGVPDRFSGSGSGTDFTLTISSLQAEDLAVYYCQNDYTYPFTFGSGTKLEIKRTVAAPSVFIFPPSDEQLKSGTASVVCLLNNFYPREAKVQWKVDNALQSGNSQESVTEQDSKDSTYSLSSTLTLSKADYEKHKVYACEVTHQGLSSPVTKSFNRGEC
notes: Humanized, human IgG1/kappa constant regions
B2: 18F2-66VH7VL3 (antibody, human IgG1, kappa)
heavy: not shown
light: B1 light
notes: as for B1
B3: 18F2-5 (antibody, human IgG1, kappa, V domains shown)
VH: QVQLQQPGAELVRPGASVKLSCKASGYTFTSFWLNWVKQRPGQGLEWIGNIYPSTSYTVYNQKFKDKATLTVDKSSSTAYMQLSSPTSEDSAVYYCTRTWRGNSFDLWGQGTTLTVSS
VL: DIVMTQSPSSLTVTAGEKVTMSCKSNQSLLNSGNQKNYVTWYQQKPGQPPKLLIYWGSTRVRGVPDRFTGSGSGTDFTLTISSVQAEDLAVYYCQNDYTYPFTFGSGTKLEIKR
B4: IMAB362 (antibody, V domains shown)
VH: B3 VH with F32Y, L34I, T55D, V59N, T99S, L107Y
VL: B3 VL with N26S, V39L, G57A, V61E, R62S, T99S
B5: 18F2-66VH3VL0 (antibody, human IgG1, kappa, V domains shown)
VH: QVQLVQSGAEVKKPGASVKVSCKASGYTFTSFWINWVRQAPGQGLEWIGNIYPSASYTVYNQKFKDRVTLTVDTSTSTVYMELSSLRSEDTAVYYCARTWRGNSFDLWGQGTTVTVSS
VL: DIVMTQSPDSLAVSLGERATINCKSSQSLLNSGNQKNYVTWYQQKPGQPPKLLIYWSSTRSFGVPDRFSGSGSGTDFTLTISSLQAEDVAVYYCQNDYTYPFTFGQGTKLEIKR
notes: as for B1
B6: 18F2-66VH5VL0 (antibody, human IgG1, kappa, V domains shown)
VH: B5 VH with A40R, T74K, V79A, A97T
VL: B5 VL
notes: as for B1
B7: 18F2-35 (antibody, human IgG1, kappa, V domains shown)
VH: B3 VH with V59I, L107Y
VL: B3 VL with N26S, V39L
B8: 18F2-66VH2VL0 (antibody, human IgG1, kappa, V domains shown)
VH: B5 VH with T74K
VL: B5 VL
notes: as for B1
B9: 18F2 (antibody, human IgG1, kappa, V domains shown)
VH: B3 VH with L34V, T99S, L107H
VL: B3 VL with N26S
notes: Chimeric full length antibody, mouse variable regions with human IgG1/kappa constant regions; also called clone 18F2; parent clone 18F2
B10: 18F2-66VH6VL0 (antibody, human IgG1, kappa, V domains shown)
VH: B5 VH with A40R, T74K, T76S, V79A, R87T, A97T
VL: B5 VL
notes: as for B1
B11: 18F2-66 (antibody, human IgG1, kappa, V domains shown)
VH: B3 VH with L34I, T55A
VL: B3 VL with N26S, G57S, V61S, R62F
B12: 18F2-30VH7VL3 (antibody, human IgG1, kappa, V domains shown)
VH: B5 VH with I34L, R38K, A40R, A55T, R67K, T74K, V79A, A97T, L107Y
VL: B5 VL with D9S, A12T, R18K, N22S, S57G, F62T, V89L, Q106S
notes: as for B1
B13: 18F2-66VH0VL0 (antibody, human IgG1, kappa, V domains shown)
VH: B5 VH with I48M, L70M, V72R
VL: B5 VL
notes: as for B1
B14: 18F2-30 (antibody, human IgG1, kappa, V domains shown)
VH: B3 VH with L107Y
VL: B3 VL with N26S, V61S, R62T
B15: 18F2-35VH7VL0 (antibody, human IgG1, kappa, V domains shown)
VH: B5 VH with I34L, R38K, A40R, A55T, V59I, R67K, T74K, V79A, A97T, L107Y
VL: B5 VL with V39L, S57G, S61V, F62R
notes: as for B1
B16: 18F2-66VH4VL0 (antibody, human IgG1, kappa, V domains shown)
VH: B5 VH with A40R, T74K
VL: B5 VL
notes: as for B1
B17: 18F2-30VH0VL0 (antibody, human IgG1, kappa, V domains shown)
VH: B5 VH with I34L, I48M, A55T, L70M, V72R, L107Y
VL: B5 VL with S57G, F62T
notes: as for B1
B18: 18F2-35VH0VL0 (antibody, human IgG1, kappa, V domains shown)
VH: B5 VH with I34L, I48M, A55T, V59I, L70M, V72R, L107Y
VL: B5 VL with V39L, S57G, S61V, F62R
notes: as for B1

Assays:
human Claudin 18.1 [1] = target: T1, human Claudin 18.1 (human, UniProt P56856 1-261); test: FACS on HEK293A/hClaudin 18.1 cells
T1 construct: Overexpressed on HEK293A cells by lentivirus

human Claudin 18.2 = target: T2, human Claudin 18.2 (human); test: FACS on HEK-293A cells expressing human Claudin 18.2
T2 construct: Overexpressed on HEK293A or MC38 cells by lentivirus; endogenous on KATO-III and NUGC-4 cells

[2] = target: T3, human Claudin 18.1 Mutant 15 (Claudin 18.1/S42A/Q45N/Q56E) (human, UniProt P56856 1-261); test: FACS on HEK293A cells expressing mutant 15
T3 chain: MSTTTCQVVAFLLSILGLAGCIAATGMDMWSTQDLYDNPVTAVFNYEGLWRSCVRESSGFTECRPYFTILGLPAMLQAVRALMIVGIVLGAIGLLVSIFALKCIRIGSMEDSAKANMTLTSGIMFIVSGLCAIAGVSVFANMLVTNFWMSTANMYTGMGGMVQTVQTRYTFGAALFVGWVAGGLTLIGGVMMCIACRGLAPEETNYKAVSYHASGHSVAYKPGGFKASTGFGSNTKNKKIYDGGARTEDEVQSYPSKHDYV

human Claudin 18.1 [3] = target: T1, human Claudin 18.1; test: FACS on HEK293A cells expressing human Claudin 18.1 WT
[4] = target: human Claudin 18.1 Mutant 14 (Q56E) (human, UniProt P56856 1-261); test: FACS on HEK293A cells expressing mutant 14
[5] = target: T4, human Claudin 18.1 Mutant 16 (Claudin 18.1/S42A/Q45N/E47Q/Q56E) (human, UniProt P56856 1-261); test: FACS on HEK293A cells expressing mutant 16
T4 chain: T3 chain with E47Q

T1 sequence (P56856 whole entry): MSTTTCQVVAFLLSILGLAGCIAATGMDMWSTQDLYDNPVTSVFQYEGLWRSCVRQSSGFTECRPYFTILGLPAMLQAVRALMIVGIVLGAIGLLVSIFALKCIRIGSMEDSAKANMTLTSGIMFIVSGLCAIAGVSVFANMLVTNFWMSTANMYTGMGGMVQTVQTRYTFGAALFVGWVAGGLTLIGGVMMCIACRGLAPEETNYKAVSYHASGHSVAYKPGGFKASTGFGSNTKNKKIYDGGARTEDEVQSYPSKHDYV

Binder | binding result (human Claudin 18.1 [1]) | EC50 (human Claudin 18.2) [nM] | other results
B1 | no binding |  | 
B2 | no binding |  | 
B3 |  | 0.616 | 
B4 |  | 0.634 | 
B5 | no binding |  | 
B6 | no binding |  | 
B7 |  | 0.509 | 
B8 | no binding |  | 
B9 |  | 1.26 | 
B10 | no binding |  | 
B11 |  | 0.524 | 
B12 |  |  | binding result [2]: binds; binding result (human Claudin 18.1 [3]): no binding; binding result [4]: binds; binding result [5]: binds
B13 | no binding |  | 
B14 |  | 0.562 | 
B15 | no binding |  | 
B16 | no binding |  | 
B17 |  |  | binding result [2]: binds; binding result (human Claudin 18.1 [3]): no binding; binding result [4]: binds; binding result [5]: binds
B18 |  |  | binding result [2]: binds; binding result (human Claudin 18.1 [3]): no binding; binding result [4]: binds; binding result [5]: binds
